Data on six molecules can be found in publication PMC9340162, “The Central Circadian Clock Protein TaCCA1 Regulates Seedling Growth and Spike Development in Wheat (Triticum aestivum L.)”.

Data set [1] concerns the target MBP-TaCCA1-7D fusion protein (Triticum aestivum (bread wheat)). Nature of the data set: BLI; ForteBio Octet RED 96e; streptavidin (SA) biosensors loaded with 10.0 ug/ml biotinylated recombinant TaCCA1-7D; TaCCA1-7A or TaCCA1-7B in solution at 10-630 nM, low to high concentration; KD as the ratio of dissociation and association rate constants.
In data set [2] the target is T1, MBP-TaCCA1-7D (Triticum aestivum, UniProt A0A3B6TKA2 1-718). Nature of the data set: BLI; single-digit nM per text; exact value in Table S6 not in material; EMSA: 150 ng protein, 2 pM DIG probe, 10 ul, 1 h on ice, 6% PAGE in 0.5x TBE pH 8.0; BLI: Octet RED96e, SA sensors with biotinylated TaCCA1-7D; buffers not stated. As to conditions: protein: recombinant, tags: MBP (pMAL-c2X, N-terminal), biotinylated for BLI, blunt.
T1 sequence (A0A3B6TKA2 entry or part of it): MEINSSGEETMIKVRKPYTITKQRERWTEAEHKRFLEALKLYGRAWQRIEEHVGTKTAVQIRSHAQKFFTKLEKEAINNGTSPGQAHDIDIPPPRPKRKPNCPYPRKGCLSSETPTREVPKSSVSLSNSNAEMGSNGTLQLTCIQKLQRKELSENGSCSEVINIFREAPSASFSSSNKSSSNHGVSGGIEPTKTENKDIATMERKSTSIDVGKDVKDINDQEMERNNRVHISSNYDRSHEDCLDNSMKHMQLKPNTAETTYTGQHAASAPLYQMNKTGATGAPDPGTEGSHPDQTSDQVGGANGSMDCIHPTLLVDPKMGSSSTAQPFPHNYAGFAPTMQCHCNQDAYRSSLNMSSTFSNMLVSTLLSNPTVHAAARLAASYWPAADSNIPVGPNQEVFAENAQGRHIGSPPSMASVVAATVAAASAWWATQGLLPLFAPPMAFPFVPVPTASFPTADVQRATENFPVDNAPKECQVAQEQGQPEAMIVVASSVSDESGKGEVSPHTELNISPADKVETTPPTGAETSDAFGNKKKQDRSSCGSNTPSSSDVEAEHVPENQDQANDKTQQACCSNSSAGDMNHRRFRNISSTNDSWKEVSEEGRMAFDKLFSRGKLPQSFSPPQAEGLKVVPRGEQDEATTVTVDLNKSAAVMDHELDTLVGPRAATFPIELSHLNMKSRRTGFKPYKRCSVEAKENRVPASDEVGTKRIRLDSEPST

In data set [3] the target is T1, MBP-TaCCA1-7D. Nature of the data set: BLI; kon 1.35E+05 1/Ms; koff 2.42E-04 1/s; EMSA: 150 ng protein, 2 pM DIG probe, 10 ul, 1 h on ice, 6% PAGE in 0.5x TBE pH 8.0; BLI: Octet RED96e, SA sensors with biotinylated TaCCA1-7D; buffers not stated. The settings on record: protein: recombinant; tags: MBP (pMAL-c2X, N-terminal); biotinylated for BLI; label: 5' biotin; blunt.

Where [4] appears, read: label: 5' biotin (BLI), DIG (EMSA).

As to TaCCA1-7A (natural protein), in data set [1], the Kd was determined as 27.8 nM, the koff came out at 0.0012 s⁻¹ and the kon was determined as 43000 M⁻¹ s⁻¹.

TaCCA1-7B (natural protein): in data set [1], the Kd worked out at 3.6 nM, the koff was found to be 0.00133 s⁻¹ and the kon is 368000 M⁻¹ s⁻¹.

B1: DAP-2 (TraesCS1D02G295200 promoter) (dsDNA)
DNA 1: AAATAGAAAATTACTGATATTTCATCCTTGTGTGAT
DNA 2: ATCACACAAGGATGAAATATCAGTAATTTTCTATTT
On to B1, for which the Kd in data set [2] (setting [4]) is less than 10 nM.

B2: DAP-4 (TraesCS3B02G186700 promoter) (dsDNA)
DNA 1: AATAGAAAATTACTGATATTTCATCCTTATGAGATT
DNA 2: AATCTCATAAGGATGAAATATCAGTAATTTTCTATT
As to B2, the Kd in data set [2] (label: 5' biotin) was less than 10 nM.

B3: DAP-1 (TraesCS1D02G226100 promoter, CHLG) (dsDNA)
DNA 1: TTATATGCCTATATGATATTATGATTTATTTGGTTT
DNA 2: AAACCAAATAAATCATAATATCATATAGGCATATAA
Consider B3, for which, in data set [3], the Kd was 1.79 nM.

B4: DAP-3 (TraesCS2B02G491700 promoter) (dsDNA)
DNA 1: CTTCAGATTTGTTGATATTTTCATATTGCAGACAT
DNA 2: ATGTCTGCAATATGAAAATATCAACAAATCTGAAG
Consider B4, for which the Kd in data set [2] (setting [4]) is less than 10 nM.
